In patent publication US20260117202A1:
Values joined by “and” are separate entries in the source; they are usually repeats but may differ in a detail not shown here. Identical values can stand only once.

Assays:
FHCS-1 (RSV strain A2) [1] = biological target: FHCS-1 (RSV strain A2) (UniProt P03420); experiment: ELISA; F coated 156.3 ng/ml; stored 37° C. 4 W
FHCS-4 (RSV strain A2) [2] = biological target: FHCS-4 (RSV strain A2) (UniProt P03420); experiment: ELISA; F coated 156.3 ng/ml; stored 37° C. 4 W
FHCS-2 (RSV strain A2) [3] = biological target: FHCS-2 (RSV strain A2) (UniProt P03420); experiment: ELISA; F coated 156.3 ng/ml; stored 37° C. 4 W
FHCS-4 (RSV strain A2) [4] = biological target: FHCS-4 (RSV strain A2) (UniProt P03420); experiment: ELISA; F coated 156.3 ng/ml; stored -80° C.
FHCS-2 (RSV strain A2) [5] = biological target: FHCS-2 (RSV strain A2) (UniProt P03420); experiment: ELISA; F coated 156.3 ng/ml; stored -80° C.
FHCS-1 (RSV strain A2) [6] = biological target: FHCS-1 (RSV strain A2) (UniProt P03420); experiment: ELISA; F coated 2500 ng/ml; stored -80° C.
FHCS-4 (RSV strain A2) [7] = biological target: FHCS-4 (RSV strain A2) (UniProt P03420); experiment: ELISA; F coated 2500 ng/ml; stored -80° C.
FHCS-2 (RSV strain A2) [8] = biological target: FHCS-2 (RSV strain A2) (UniProt P03420); experiment: ELISA; F coated 2500 ng/ml; stored -80° C.
FHCS-1 (RSV strain A2) [9] = biological target: FHCS-1 (RSV strain A2) (UniProt P03420); experiment: ELISA; F coated 156.3 ng/ml; stored 37° C. 2 W
FHCS-4 (RSV strain A2) [10] = biological target: FHCS-4 (RSV strain A2) (UniProt P03420); experiment: ELISA; F coated 156.3 ng/ml; stored 37° C. 2 W
FHCS-2 (RSV strain A2) [11] = biological target: FHCS-2 (RSV strain A2) (UniProt P03420); experiment: ELISA; F coated 156.3 ng/ml; stored 37° C. 2 W
FHCS-1 (RSV strain A2) [12] = biological target: FHCS-1 (RSV strain A2) (UniProt P03420); experiment: ELISA; F coated 625 ng/ml; stored -80° C.
FHCS-1 (RSV strain A2) [13] = biological target: FHCS-1 (RSV strain A2) (UniProt P03420); experiment: ELISA; F coated 312.5 ng/ml; stored -80° C.
FHCS-4 (RSV strain A2) [14] = biological target: FHCS-4 (RSV strain A2) (UniProt P03420); experiment: ELISA; F coated 312.5 ng/ml; stored -80° C.
FHCS-2 (RSV strain A2) [15] = biological target: FHCS-2 (RSV strain A2) (UniProt P03420); experiment: ELISA; F coated 312.5 ng/ml; stored -80° C.
FHS-29 (RSV strain A2) = FHS-29 (RSV strain A2) (UniProt P03420); experiment: sandwich ELISA, AM14 coated, supernatant 1:10
FHS-59 (RSV strain A2) = FHS-59 (RSV strain A2) (UniProt P03420); experiment: sandwich ELISA, AM14 coated, supernatant 1:10
FHS-14 (RSV strain A2) = FHS-14 (RSV strain A2) (UniProt P03420); experiment: sandwich ELISA, AM14 coated, supernatant 1:10
FHS-60 (RSV strain A2) = FHS-60 (RSV strain A2) (UniProt P03420); experiment: sandwich ELISA, AM14 coated, supernatant 1:10
FHM-22 (RSV strain A2) = FHM-22 (RSV strain A2) (UniProt P03420); experiment: sandwich ELISA, AM14 coated, supernatant 1:10
FHS-69 (RSV strain A2) = FHS-69 (RSV strain A2) (UniProt P03420); experiment: sandwich ELISA, AM14 coated, supernatant 1:10
FHS-73 (RSV strain A2) = FHS-73 (RSV strain A2) (UniProt P03420); experiment: sandwich ELISA, AM14 coated, supernatant 1:10
FHM-15 (RSV strain A2) = FHM-15 (RSV strain A2) (UniProt P03420); experiment: sandwich ELISA, AM14 coated, supernatant 1:10
FHS-30 (RSV strain A2) = FHS-30 (RSV strain A2) (UniProt P03420); experiment: sandwich ELISA, AM14 coated, supernatant 1:10
FHM-2 (RSV strain A2) = FHM-2 (RSV strain A2) (UniProt P03420); experiment: sandwich ELISA, AM14 coated, supernatant 1:10
FHM-8 (RSV strain A2) = FHM-8 (RSV strain A2) (UniProt P03420); experiment: sandwich ELISA, AM14 coated, supernatant 1:10
FHS-62 (RSV strain A2) = FHS-62 (RSV strain A2) (UniProt P03420); experiment: sandwich ELISA, AM14 coated, supernatant 1:10
FHS-17 (RSV strain A2) = FHS-17 (RSV strain A2) (UniProt P03420); experiment: sandwich ELISA, AM14 coated, supernatant 1:10
FHS-42 (RSV strain A2) = FHS-42 (RSV strain A2) (UniProt P03420); experiment: sandwich ELISA, AM14 coated, supernatant 1:10
FHS-10 (RSV strain A2) = FHS-10 (RSV strain A2) (UniProt P03420); experiment: sandwich ELISA, AM14 coated, supernatant 1:10
FHS-41 (RSV strain A2) = FHS-41 (RSV strain A2) (UniProt P03420); experiment: sandwich ELISA, AM14 coated, supernatant 1:10
FHS-58 (RSV strain A2) = FHS-58 (RSV strain A2) (UniProt P03420); experiment: sandwich ELISA, AM14 coated, supernatant 1:10
FHS-78 (RSV strain A2) = FHS-78 (RSV strain A2) (UniProt P03420); experiment: sandwich ELISA, AM14 coated, supernatant 1:10
FHS-47 (RSV strain A2) = FHS-47 (RSV strain A2) (UniProt P03420); experiment: sandwich ELISA, AM14 coated, supernatant 1:10
FHS-93 (RSV strain A2) = FHS-93 (RSV strain A2) (UniProt P03420); experiment: sandwich ELISA, AM14 coated, supernatant 1:10
FHS-39 (RSV strain A2) = FHS-39 (RSV strain A2) (UniProt P03420); experiment: sandwich ELISA, AM14 coated, supernatant 1:10
FHS-49 (RSV strain A2) = FHS-49 (RSV strain A2) (UniProt P03420); experiment: sandwich ELISA, AM14 coated, supernatant 1:10
FHM-20 (RSV strain A2) = FHM-20 (RSV strain A2) (UniProt P03420); experiment: sandwich ELISA, AM14 coated, supernatant 1:10
FHS-57 (RSV strain A2) = FHS-57 (RSV strain A2) (UniProt P03420); experiment: sandwich ELISA, AM14 coated, supernatant 1:10

Synagis® (antibody)
OD value (FHCS-1 (RSV strain A2) [1]): 0.055 OD and 0.062 OD
OD value (FHCS-4 (RSV strain A2) [2]): 0.05 OD and 0.048 OD
OD value (FHCS-2 (RSV strain A2) [3]): 0.069 OD and 0.058 OD
OD value (FHCS-4 (RSV strain A2) [4]): 0.021 OD and 0.017 OD
OD value (FHCS-2 (RSV strain A2) [5]): 0.028 OD and 0.032 OD
OD value (FHCS-1 (RSV strain A2) [6]): 1.5 OD and 1.61 OD
OD value (FHCS-4 (RSV strain A2) [7]): 0.947 OD and 0.991 OD
OD value (FHCS-2 (RSV strain A2) [8]): 1.78 OD and 1.8 OD
OD value (FHCS-1 (RSV strain A2) [9]): 0.017 OD and 0.018 OD
OD value (FHCS-4 (RSV strain A2) [10]): 0.033 OD and 0.024 OD
OD value (FHCS-2 (RSV strain A2) [11]): 0.037 OD and 0.036 OD

AM14 monoclonal antibody
OD value (FHCS-1 (RSV strain A2) [12]): 0.004 OD and 0.007 OD
OD value (FHCS-1 (RSV strain A2) [13]): 0.003 OD and 0.006 OD
OD value (FHCS-4 (RSV strain A2) [14]): 0.008 OD and 0.006 OD
OD value (FHCS-2 (RSV strain A2) [15]): 0.007 OD
OD value (FHS-29 (RSV strain A2)): 0.007 OD
OD value (FHS-59 (RSV strain A2)): 0.006 OD
OD value (FHS-14 (RSV strain A2)): 2.61 OD
OD value (FHS-60 (RSV strain A2)): 0.007 OD
OD value (FHM-22 (RSV strain A2)): 1.98 OD
OD value (FHS-69 (RSV strain A2)): 1.88 OD
OD value (FHS-73 (RSV strain A2)): 0.016 OD
OD value (FHM-15 (RSV strain A2)): 1.5 OD
OD value (FHS-30 (RSV strain A2)): 0.009 OD
OD value (FHM-2 (RSV strain A2)): 2.23 OD
OD value (FHM-8 (RSV strain A2)): 0.016 OD
OD value (FHS-62 (RSV strain A2)): 0.01 OD
OD value (FHS-17 (RSV strain A2)): 0.009 OD
OD value (FHS-42 (RSV strain A2)): 0.01 OD
OD value (FHS-10 (RSV strain A2)): 0.069 OD
OD value (FHS-41 (RSV strain A2)): 0.006 OD
OD value (FHS-58 (RSV strain A2)): 0.011 OD
OD value (FHS-78 (RSV strain A2)): 1.24 OD
OD value (FHS-47 (RSV strain A2)): 1.32 OD
OD value (FHS-93 (RSV strain A2)): 0.009 OD
OD value (FHS-39 (RSV strain A2)): 0.007 OD
OD value (FHS-49 (RSV strain A2)): 1.96 OD
OD value (FHM-20 (RSV strain A2)): 0.607 OD
OD value (FHS-57 (RSV strain A2)): 0.007 OD
